Test results reported in patent publication US7208311B2, “Catalytic domain of ADAM33 and methods of use thereof” (Schering Corporation, priority 2002, dated 2007).
Values belong to the molecule of their own block, whether it stands above or below them.

Legend:
human ADAM17 = human ADAM17 (Homo sapiens, UniProt P78536); test: Inhibition of human ADAM17 by human TIMPs, fluorogenic pro-TNF-alpha substrate; type: biochemical; conditions: ADAM17 1 nM, substrate 25 μM
Method: Inhibition of human ADAM17 by human TIMPs was determined as follows: ADAM17 (1 nM) was pre-incubated with serial dilutions of TIMP-1 (0–4 μM), TIMP-2 (0–1 μM), TIMP-3 (0–0.2 μM), or TIMP-4 (0–4 μM), in assay buffer (25 mM HEPES, pH7.5, 5 mM CaCl2, 0.1 mM ZnCl2) for 1 h at RT, followed by addition of the fluorogenic pro-TNF-alpha substrate (25 μM), K(mca)SPLAQAVRSSSRK(dnp) (SEQ ID NO: 46). The reaction velocities were measured using the GEMINI fluorescence reader at 320/380 nm for 1 h and inhibition dissociation constants were calculated by fitting the data to Morrison equation (TIMP-2 and TIMP-3) or Michaelis-Menten equation (TIMP-1 and TIMP-4) as described above.

ADAM33 [1] = target: T1, ADAM33 (Homo sapiens, UniProt Q9BZ11); test: HPLC inhibition assay, ADAM33cat with KL-1 peptide substrate; type: biochemical; conditions: at 2 µM
T1 construct: made in house; host or cells: Drosophila melanogaster S2 cells
T1 sequence (Q9BZ11 204-409 limits assumed): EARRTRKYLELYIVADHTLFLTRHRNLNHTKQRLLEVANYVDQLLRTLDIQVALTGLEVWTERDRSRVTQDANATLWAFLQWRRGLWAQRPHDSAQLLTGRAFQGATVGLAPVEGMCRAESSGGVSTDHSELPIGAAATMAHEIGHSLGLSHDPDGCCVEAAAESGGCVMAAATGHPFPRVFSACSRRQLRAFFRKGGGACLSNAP
Method: The inhibition dissociation constants (Ki) for inhibitors were determined as follows: an HPLC assay was performed in the presence or absence of inhibitors for 2 h at RT using ADAM33cat (80 nM) and KL-1 peptide substrate (100 μM). For testing tissue inhibitor of metalloproteinases (TIMPs), ADAM33 and human TIMPs were pre-incubated for 1 h at RT. […] Initial velocities were calculated by dividing cleaved product over reaction time. The initial velocities were plotted as a function of inhibitor concentration. For tight binding inhibitors (IK682, TIMP-3), the apparent inhibitor dissociation constants (Ki app values) were calculated by fitting the curve to the following modified Morrison's equation: vi=vo{[(Eo−Io−Ki^app)^2+4 Ki^appEo]^1/2+(Eo−IoKI^app)}/2Eo where Ki^app=Ki(1+S/Km), vo is the uninhibited initial velocity, vi is the initial velocity in the presence of inhibitor at any given inhibitor concentration Io, and Eo is initial enzyme concentration. When the substrate concentration S<<Km, Ki^app is approximately equal to Ki.

ADAM33 [2] = test: MCF 12-mer peptide proteolysis assay (HPLC); type: biochemical, human; conditions: MCF peptide substrate
Method: A 12-mer peptide (i.e. Ac-LPPVAASSLNRD-NH2; SEQ ID NO: 48), derived from human mast-cell growth factor (accession number NP-038626) was synthesized as a substrate for ADAM33. Reactions were initiated by addition of 200 nM enzyme to appropriate amounts of substrate in assay buffer (25 mM HEPES, pH 7.5, 0.5 M NaCl, 0.1% n-octyl-β-D-glucoside), incubated at 22° C. for 2 h and subsequently quenched with 1% TFA. When inhibitors were evaluated, the enzyme and inhibitors were preincubated at 22° C. for 30 min prior to initiation of the assays. Substrate and products were separated by HPLC using a C-8 reverse phase column (Zobrax 3.5 μm, 4.6 mmD/5 cmL, Agilent, Palo Alto, Calif., 0.1% TFA acetonitrile/H2O). Elution was monitored at 214 nm, and peaks identified by mass spectroscopy. Initial rates of proteolysis were determined using reactions in which less than 10% of the substrate was consumed. kcat/Km values were calculated assuming the enzymes were 100% active.
Production of ADAM33 and mutants thereof were produced essentially as described in Example 1. Proteolytic assays and methods for determining catalytic rates are essentially as described in Examples 2 and 3.

Chain of human ADAM17 (P78536 215-824): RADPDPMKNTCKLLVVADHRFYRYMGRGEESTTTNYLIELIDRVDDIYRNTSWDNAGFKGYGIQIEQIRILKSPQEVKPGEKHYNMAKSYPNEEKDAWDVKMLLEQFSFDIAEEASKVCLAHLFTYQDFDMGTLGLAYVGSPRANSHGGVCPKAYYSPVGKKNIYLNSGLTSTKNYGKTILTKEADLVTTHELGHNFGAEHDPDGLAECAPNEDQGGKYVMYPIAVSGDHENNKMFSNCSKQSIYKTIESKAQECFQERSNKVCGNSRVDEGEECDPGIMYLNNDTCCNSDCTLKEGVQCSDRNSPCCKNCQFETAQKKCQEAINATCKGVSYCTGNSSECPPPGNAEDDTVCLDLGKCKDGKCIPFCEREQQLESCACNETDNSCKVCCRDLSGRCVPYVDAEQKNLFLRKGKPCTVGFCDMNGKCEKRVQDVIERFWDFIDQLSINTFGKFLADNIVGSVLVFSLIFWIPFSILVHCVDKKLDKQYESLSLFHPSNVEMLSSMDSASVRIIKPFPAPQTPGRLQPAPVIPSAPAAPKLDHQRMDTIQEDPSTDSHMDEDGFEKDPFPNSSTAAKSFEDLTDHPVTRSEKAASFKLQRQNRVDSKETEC

- inhibition of human ADAM17 activity (human ADAM17): weakly inhibited
- inhibition of ADAM33 activity (ADAM33 [1]): no inhibition
Molecule: TIMP-1: human tissue inhibitor of metalloproteinases 1, endogenous inhibitor of MMPs and ADAMs

B1: pro-CAT single chain zymogen form: single chain zymogen form of ADAM33 (R203T/R207S; SEQ ID NO:54) (protein)
chain: LQGHIPGQPVTPHWVLDGQPWRTVSLEEPVSKPDMGLVALEAEGQELLLELEKNHRLLAPGYIETHYGPDGQPVVLAPNHTDHCHYQGRVRGFPDSWVVLCTCSGMSGLITLSRNASYYLRPWPPRGSKDFSTHEIFRMEQLLTWKGTCGHRDPGNKAGMTSLPGGPQSRGRTEARSTRKYLELYIVADHTLFLTRHRNLNHTKQRLLEVANYVDQLLRTLDIQVALTGLEVWTERDRSRVTQDANATLWAFLQWRRGLWAQRPHDSAQLLTGRAFQGATVGLAPVEGMCRAESSGGVSTDHSELPIGAAATMAHEIGHSLGLSHDPDGCCVEAAAESGGCVMAAATGHPFPRVFSACSRRQLRAFFRKGGGACLSNAP
modifications: homo sapiens
- catalytic efficiency relative to CAT domain (ADAM33 [2]): no significant difference

- inhibition of human ADAM17 activity (human ADAM17): inhibited
B2: TIMP4: human tissue inhibitor of metalloproteinases 4, endogenous inhibitor of MMPs and ADAMs (protein)
chain: CSCAPAHPQQHICHSALVIRAKISSEKVVPASADPADTEKMLRYEIKQIKMFKGFEKVKDVQYIYTPFDSSLCGVKLEANSQKQYLLTGQVLSDGKVFIHLCNYIEPWEDLSLVQRESLNHHYHLNCGCQITTCYTVPCTISAPNECLWTDWLLERKLYGYQAQHYVCMKHVDGTCSWYRGHLPLRKEFVDIVQP

- inhibition of human ADAM17 activity (human ADAM17): inhibited
B3: TIMP-3: human tissue inhibitor of metalloproteinases 3, endogenous inhibitor of MMPs and ADAMs (protein)
chain: CTCSPSHPQDAFCNSDIVIRAKVVGKKLVKEGPFGTLVYTIKQMKMYRGFTKMPHVQYIHTEASESLCGLKLEVNKYQYLLTGRVYDGKMYTGLCNFVERWDQLTLSQRKGLNYRYHLGCNCKIKSCYYLPCFVTSKNECLWTDMLSNFGYPGYQSKHYACIRQKGGYCSWYRGWAPPDKSIINATDP
